Assay results as given in US20050013808A1, “Nitroreductase enzymes” (priority 2001, published 2005).
Residue numbers refer to the chain shown, from its start. In names and notes the source's numbering stands. Several values for one entry are separate records, joined by “and”; a condition that tells them apart may be missing. Equal values may be shown once.

B1: F124M (protein)
chain: MDIISVALKRHSTKAFDASKKLTPEQAEQIKTLLQYSPSSTNSQPWHFIVASTEEGKARVAKSAAGNYVFNERKMLDASHVVVFCAKTAMDDVWLKLVVDQEDADGRFATPEAKAANDKGRKFMADMHRKDLHDDAEWMAKQVYLNVGNFLLGVAALGLDAVPIEGFDAAILDAEFGLKEKGYTSLVVVPVGHHSVEDFNATLPKSRLPQNITLTEV
B2: F124S (protein)
chain: B1 chain with M124S
B3: F124T (protein)
chain: B1 chain with M124T
B4: F124W (protein)
chain: B1 chain with M124W
B5: F124Y (protein)
chain: B1 chain with M124Y
B6: F124V (protein)
chain: B1 chain with M124V
B7: F124A (protein)
chain: B1 chain with M124A
B8: F124C (protein)
chain: B1 chain with M124C
B9: F124Q (protein)
chain: B1 chain with M124Q
B10: F124G (protein)
chain: B1 chain with M124G
B11: T41L: NTR mutant, threonine 41 to leucine (protein)
chain: B1 chain with T41L, M124F
B12: Y68C (protein)
chain: B1 chain with Y68C, M124F
B13: Y68S (protein)
chain: B1 chain with Y68S, M124F
B14: Y68A (protein)
chain: B1 chain with Y68A, M124F
B15: Y68N (protein)
chain: B1 chain with Y68N, M124F
B16: Y68W (protein)
chain: B1 chain with Y68W, M124F
B17: N71D (protein)
chain: B1 chain with N71D, M124F
B18: N71S (protein)
chain: B1 chain with N71S, M124F
B19: G120A (protein)
chain: B1 chain with G120A, M124F
B20: G120S (protein)
chain: B1 chain with G120S, M124F
B21: Y68G F124Q (protein)
chain: B1 chain with Y68G, M124Q
B22: Y68G F124W (protein)
chain: B1 chain with Y68G, M124W
B23: S40A (protein)
chain: B1 chain with S40A, M124F
B24: S40G (protein)
chain: B1 chain with S40G, M124F
B25: S40T (protein)
chain: B1 chain with S40T, M124F
B26: T41G (protein)
chain: B1 chain with T41G, M124F

system: UT5600 cells (NTR−) lysogens; experiment: Replica-plate screening of mutant NTR-expressing lysogens on increasing CB1954 (growth score); format: cell-based, E. coli; set-up: key to Score: 0: Good growth on all concentrations of CB 1954 = vector; Good growth on 100 and 200, faint on 300, ring of growth on 400 μM; Good growth on 100 and 200, ring growth on 300, none or very faint on 400 μM; Good growth on 100, faint to good on 200, none or very faint on 300 and 400 μM; 4: Good growth on 100 μM, none to ring growth on 200 μM = wild type; Good growth on 50 μM, ring on 100 μM, none on 200, 300 or 400 μM; 6: Faint growth on 50 μM, ring on 100 μM; 7: Good growth on 50 μM, none on 100 μM; 8: Ring growth on 50 μM, none on 100 μM; 9: None or very faint growth on 50 μM, none on 100 μM; 10: None or ring growth on 35 μM; details: CB1954
Procedure: The ligation mix was packaged (Stratagene) into lambda bacteriophage particles that were used to infect UT5600 cells (NTR ^−). As a control wild type NTR was also cloned into this vector (JG16C2). Kanamycin resistant lysogens were selected on agar plates ([…] kanamycin) then individually grown overnight in a well of a 96-well plate in LB+Kanamycin. The clones were replica plated on to a series of plates containing Tris-buffered (50 mM, pH 7.5) LB agar with kanamycin, IPTG (0.1 mM) and CB1954 at a concentration of 0, 25, 35, 50, 100, 200, 300 or 400 μM (see FIG. 3). […]

Molecule | nitroreductase activity with CB1954 compared with wild-type
B1 | substantially greater activity with CB 1954 than the wild-type
B2 | substantially greater activity with CB 1954 than the wild-type
B3 | substantially greater activity with CB 1954 than the wild-type
B4 | substantially greater activity with CB 1954 than the wild-type
B5 | substantially greater activity with CB 1954 than the wild-type
B6 | substantially greater activity with CB 1954 than the wild-type
B7 | substantially greater activity with CB 1954 than the wild-type
B8 | substantially greater activity with CB 1954 than the wild-type
B9 | substantially greater activity with CB 1954 than the wild-type
B10 | substantially greater activity with CB 1954 than the wild-type

same assay, conditions: growth of lysogens on agar with kanamycin, IPTG and 0-400 μM CB1954; wild type = 4, higher = more sensitive

Molecule | Score
B11 | 5-7
B1 | 9
B2 | 7-9
B3 | 7-9 and 7-8
B4 | 5-7
B5 | 5-7
B6 | 7-9
B7 | 7-9
B8 | 7-9
B9 | 8
B10 | 7
B12 | 5
B13 | 5-7
B14 | 5-7
B15 | 5-7
B16 | 4-5
B17 | 5
B18 | 7
B19 | 4-5
B20 | 4-6
B21 | 4
B22 | 5-7
B23 | 5-7
B24 | 5
B25 | 5
B26 | 5-7

system: UT5600 cells (NTR−) lysogens; experiment: Survival curve (colony count) IC50 of CB1954 in NTR-expressing lysogens; format: cell-based, E. coli; details: concentration of CB1954 giving 50% reduction in colony number after 36h growth; lysogen expressing the named NTR
Procedure: To quantify the improvement in NTR activity in the clones in a less subjective way, a few clones were selected for further study by determining their survival curves. The lysogens were grown overnight in LB +kanamycin and diluted to approximately 1 cell per μl based on the OD. In duplicate, 100 μl diluted cells were plated into Tris-buffered LB plates containing kanamycin, IPTG and 0-400 μM CB1954. After 36h growth the number of colonies on each plate were counted and expressed as a percentage of the number present on the plates with no CB1954. Survival curves showing % survival versus concentration of CB 1954 were plotted (see examples in FIG. 7) and the IC50 determined as the concentration of CB 1954 which kills gives a 50% reduction in colony number (Table 3 and FIG. 8). A few clones containing mutations resulting in an enhanced sensitivity to CB 1954 were selected for further study.

Molecule | IC50
B11 | 38 µM
B1 | 33 µM
B2 | 41 µM
B3 | 56 µM and 87 µM
B4 | 56 µM
B5 | 66 µM
B6 | 37 µM and 53 µM
B7 | 20 µM and 32 µM
B8 | 36 µM
B9 | 39 µM
B10 | 49 µM
B12 | 105 µM
B13 | 96 µM
B14 | 81 µM
B15 | 79 µM
B16 | 108 µM
B17 | 110 µM
B18 | 55 µM
B19 | 160 µM
B20 | 125 µM
B21 | 143 µM
B22 | 69 µM
B23 | 100 µM and 84 µM
B24 | 90 µM
B25 | 102 µM
B26 | 120 µM

system: not listed separately; experiment: Steady state kinetics of purified NTR, variable substrate NADH; format: biochemical; details: fixed substrate nitrofurazone
Procedure: (§1) Wild type NTR and selected mutants were purified as described by Lovering et al., 2001. Steady state kinetic studies were carried out by monitoring the disappearance of nitrofurazone ( ? =12,960, Zenno, et al., 1994) and nitrofurantoin ( ? =12,020, McOsker, et al., 1992) at 420 nm or the disappearance of reduced benzoquinone ( ? =18,5000), 2-nitrofuran ( ? =10,250, McOsker, et al., 1992), 2-nitrobenzamide ( ? =9,750, McOsker, et al., 1992) and 4 nitrobenzamide ( ? =9,720, McOsker, et al., 1992) at 300 nm. The formation of the 4 hydroxylamine product of CB1954 reduction was monitored at 420 nm ( ? =7900, Richard Knox, personal communication).
(§2) All reactions were performed in quartz cuvettes with either a 0.1-, 0.5-, or 1-cm pathlength. In all cases the reaction was initiated by the addition of a small amount of cold enzyme solution to the reaction mix. Assays were performed in 10 mM Tris HCL pH 7.0. The temperature of each reaction was maintained at 25° C. by means of a circulating water bath. All substrates examined were dissolved in DMSO, with the final concentration of organic solvent not exceeding 4% (v/v), concentrations>5% (v/v) give definable enzyme inhibition. In all assay the final DMSO concentration was at 4%. All steady state data were collected in an aerobic environment. Kinetic data were collected at concentration ranges extending from 0.1 of Km to the maximum possible concentration permitted by substrate solubility or optical absorbance. In all cases maximum substrate concentrations exceeded 5×Km. All data was analysed using the commercial package Sigma Plot™ and fit with non-linear regression to a rectangular hyperbola of the form: y=ax/b+x

Molecule | kcat [s⁻¹]
B11 | 35.18 ± 0.583

same assay, conditions: fixed substrate nitrofurazone, 10 mM Tris HCl pH 7.0, 25° C., 4% DMSO

Molecule | Km [µM]
B11 | 5 ± 2

system: not listed separately; experiment: Steady state kinetics of purified NTR, variable substrate CB1954; format: biochemical; details: second substrate CB1954; nucleotide NADH
Procedure: as §1, §2

Molecule | kinetic parameters compared with wild type
B11 | best bimolecular rate constant vs. the second substrate

same assay, conditions: variable substrate CB1954, fixed substrate NADH

Molecule | Km [µM] | kcat [s⁻¹]
B11 | 871 ± 77 | 16.2 ± 1.37

system: not listed separately; experiment: Steady state kinetics of purified NTR, variable substrate nitrofurazone; format: biochemical; details: fixed substrate NADH
Procedure: as §1, §2

Molecule | Km [µM] | kcat [s⁻¹]
B11 | 79 ± 11 | 35.14 ± 0.612
